This is an account of results in patent US20200199241A1 (Chugai, published 2020).

What is called Kd is the concentration at which binding is half-saturated.

Numbering of substitutions follows the chain as printed.

For this test, the target named is T1, soluble human FcRn complexed with β2-microglobulin (human, UniProt P61769 21-119, limits assumed).
T1 construct: also called hFcRn
Briefly: Biacore SPR, pH 7.0.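 Note: test antibodies captured on a Protein L chip with human FcRn flowed over as analyte, KD obtained as the ratio of dissociation to association rate constants.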 For orientation: Surface plasmon resonance follows binding to a sensor surface in real time, without labels.

T1 sequence (chain, as listed by the source limits assumed, chain 1 of 2): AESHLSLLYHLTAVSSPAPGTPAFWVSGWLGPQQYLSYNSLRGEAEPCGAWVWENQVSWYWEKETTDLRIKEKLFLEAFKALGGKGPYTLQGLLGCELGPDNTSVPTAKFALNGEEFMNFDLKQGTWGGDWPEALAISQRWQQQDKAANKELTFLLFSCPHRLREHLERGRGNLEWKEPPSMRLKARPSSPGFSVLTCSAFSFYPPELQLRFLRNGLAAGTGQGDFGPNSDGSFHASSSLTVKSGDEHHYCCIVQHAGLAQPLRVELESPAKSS
T1 sequence (P61769 21-119 limits assumed, chain 2 of 2): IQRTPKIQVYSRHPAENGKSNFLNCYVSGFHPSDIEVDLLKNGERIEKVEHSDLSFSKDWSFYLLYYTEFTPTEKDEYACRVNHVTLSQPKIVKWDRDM

B1: IgG1-F888 (antibody)
heavy: QVQLQESGPGLVKPSETLSLTCAVSGHSISHDHAWSWVRQPPGEGLEWIGFISYSGITNYNPSLQGRVTISRDNSKNTLYLQMNSLRAEDTAVYYCARSLARTTAMDYWGEGTLVTVSSASTKGPSVFPLAPSSKSTSGGTAALGCLVKDYFPEPVTVSWNSGALTSGVHTFPAVLQSSGLYSLSSVVTVPSSSLGTQTYICNVNHKPSNTKVDKKVEPKSCDKTHTCPPCPAPELLGGPSVFLFPPKPKDTLYISRTPEVTCVVVDVSHEDPEVKFNWYVDGVEVHNAKTKPREEQYNSTYRVVSVLTVLHQDWLNGKEYKCKVSNKALPAPIEKTISKAKGQPREPQVYTLPPSRDELTKNQVSLTCLVKGFYPSDIAVEWESNGQPENNYKTTPPVLDSDGSFFLYSKLTVDKSRWQQGNVFSCSVMHEALHYHSTQKSLSLSP
light: not shown
notes: EU numbering; copies: 2 + 2
As for B1, binding was put at a Kd of 480 nM.

B2: IgG1-F924 (antibody)
heavy: B1 heavy with L237K, S241K, T309Q, Q313A, S438I
light: not shown
notes: EU numbering; copies: 2 + 2
B2 had a Kd of 34 nM.

B3: IgG1-F899 (antibody)
heavy: B1 heavy with N317D, G318A, S438Y
light: not shown
notes: EU numbering; copies: 2 + 2
As to B3, binding was characterised by a dissociation constant (Kd) of 110 nM.

B4: IgG1-F922 (antibody)
heavy: B1 heavy with L237K, S241K, N288E, S438I
light: not shown
notes: EU numbering; copies: 2 + 2
On to B4, for which the Kd is 59 nM.

B5: IgG1-F914 (antibody)
heavy: B1 heavy with N317D, G318V, S438Y
light: not shown
notes: EU numbering; copies: 2 + 2
Molecule B5 gave a Kd of 150 nM.

B6: IgG1-F911 (antibody)
heavy: B1 heavy with N317D, G318R, S438Y
light: not shown
notes: EU numbering; copies: 2 + 2
In turn, B6 yielded a Kd of 130 nM.

B7: IgG1-F912 (antibody)
heavy: B1 heavy with N317D, G318S, S438Y
light: not shown
notes: EU numbering; copies: 2 + 2
Molecule B7 returned a Kd of 120 nM.

B8: IgG1-F905 (antibody)
heavy: B1 heavy with N317D, G318K, S438Y
light: not shown
notes: EU numbering; copies: 2 + 2
Molecule B8 yielded a Kd of 130 nM.

B9: IgG1-F908 (antibody)
heavy: B1 heavy with N317D, G318N, S438Y
light: not shown
notes: EU numbering; copies: 2 + 2
B9: the Kd came to 150 nM.

B10: IgG1-F894 (antibody)
heavy: B1 heavy with L237R, S241K, S438I
light: not shown
notes: EU numbering; copies: 2 + 2
The molecule B10 registered a dissociation constant (Kd) of 92 nM.

B11: IgG1-F901 (antibody)
heavy: B1 heavy with N317D, G318E, S438Y
light: not shown
notes: EU numbering; copies: 2 + 2
Take B11: the Kd was 130 nM.

B12: IgG1-F906 (antibody)
heavy: B1 heavy with N317D, G318L, S438Y
light: not shown
notes: EU numbering; copies: 2 + 2
For B12, the affinity, expressed as Kd, was 150 nM.

B13: IgG1-F903 (antibody)
heavy: B1 heavy with N317D, G318H, S438Y
light: not shown
notes: EU numbering; copies: 2 + 2
Turning to B13, the Kd stood at 230 nM.

B14: IgG1-F913 (antibody)
heavy: B1 heavy with N317D, G318T, S438Y
light: not shown
notes: EU numbering; copies: 2 + 2
In turn, B14 yielded a Kd of 110 nM.

B15: IgG1-F918 (antibody)
heavy: B1 heavy with D282E, N386A, N391A, S438Y
light: not shown
notes: EU numbering; copies: 2 + 2
As for B15, the Kd is 280 nM.

B16: IgG1-F946 (antibody)
heavy: B1 heavy with T252V, T309Q, Q313A, S438V
light: not shown
notes: EU numbering; copies: 2 + 2
As for B16, binding was put at a Kd of 43 nM.

B17: IgG1-F898 (antibody)
heavy: B1 heavy with N317E, N386A, N391A, S438Y
light: not shown
notes: EU numbering; also called E898; copies: 2 + 2
Take B17: the Kd came to 170 nM.

B18: IgG1-F920 (antibody)
heavy: B1 heavy with N288S, N386A, N391A, S438Y
light: not shown
notes: EU numbering; copies: 2 + 2
Molecule B18 displayed a Kd of 250 nM.

B19: IgG1-F942 (antibody)
heavy: B1 heavy with L237K, S241K, T309Q, Q313A, S438V
light: not shown
notes: EU numbering; copies: 2 + 2
As for B19, the Kd is 42 nM.

B20: IgG1-F893 (antibody)
heavy: B1 heavy with L237K, S241K, S438I
light: not shown
notes: EU numbering; copies: 2 + 2
B20 displayed a Kd of 98 nM.

B21: IgG1-F904 (antibody)
heavy: B1 heavy with N317D, G318I, S438Y
light: not shown
notes: EU numbering; copies: 2 + 2
Regarding B21, the Kd was 100 nM.

B22: IgG1-F897 (antibody)
heavy: B1 heavy with N317D, N386A, N391A, S438Y
light: not shown
notes: EU numbering; copies: 2 + 2
On to B22, for which the Kd is 97 nM.

B23: IgG1-F900 (antibody)
heavy: B1 heavy with N317D, G318D, S438Y
light: not shown
notes: EU numbering; copies: 2 + 2
In the case of B23, the Kd was 170 nM.

B24: IgG1-F917 (antibody)
heavy: B1 heavy with N288S, S438Y
light: not shown
notes: EU numbering; copies: 2 + 2
B24: binding was put at a Kd of 250 nM.

B25: IgG1-F895 (antibody)
heavy: B1 heavy with L237K, S241K, N288E, T309Q, Q313A, N317E, S438Y
light: not shown
notes: EU numbering; copies: 2 + 2
In turn, B25 displayed a Kd of 21 nM.

B26: IgG1-F938 (antibody)
heavy: B1 heavy with L237K, S241K, S438V
light: not shown
notes: copies: 2 + 2
The molecule B26 displayed a Kd of 160 nM.

B27: IgG1-F934 (antibody)
heavy: B1 heavy with G238K, P240D, T252V, S438Y
light: not shown
notes: EU numbering; copies: 2 + 2
Consider B27, for which the Kd was determined as 310 nM.

B28: IgG1-F935 (antibody)
heavy: B1 heavy with G239K, P240D, T252V, S438Y
light: not shown
notes: EU numbering; copies: 2 + 2
The molecule B28 returned a Kd of 320 nM.

B29: IgG1-F892 (antibody)
heavy: B1 heavy with S256T, S438I
light: not shown
notes: EU numbering; copies: 2 + 2
For B29, binding was characterised by a dissociation constant (Kd) of 71 nM.

B30: IgG1-F925 (antibody)
heavy: B1 heavy with L237R, S241K, T309Q, Q313A, S438I
light: not shown
notes: EU numbering; copies: 2 + 2
The molecule B30 returned an equilibrium dissociation constant (Kd) of 32 nM.

B31: IgG1-F940 (antibody)
heavy: B1 heavy with P240D, T252V, S438V
light: not shown
notes: EU numbering; copies: 2 + 2
Molecule B31 came in with a Kd of 150 nM.

B32: IgG1-F889 (antibody)
heavy: B1 heavy with S438T
light: not shown
notes: EU numbering; copies: 2 + 2
In the case of B32, the Kd is 220 nM.

B33: IgG1-F927 (antibody)
heavy: B1 heavy with L237R, S241K, S256T, S438I
light: not shown
notes: EU numbering; copies: 2 + 2
B33 returned a Kd of 100 nM.

B34: IgG1-F907 (antibody)
heavy: B1 heavy with N317D, G318M, S438Y
light: not shown
notes: EU numbering; copies: 2 + 2
In the case of B34, the Kd turned out to be 130 nM.

B35: IgG1-F921 (antibody)
heavy: B1 heavy with N288E, N386A, N391A, S438Y
light: not shown
notes: EU numbering; copies: 2 + 2
Molecule B35 showed a Kd of 120 nM.

B36: IgG1-F923 (antibody)
heavy: B1 heavy with L237R, S241K, N288E, S438I
light: not shown
notes: EU numbering; copies: 2 + 2
B36 displayed a Kd of 60 nM.

B37: IgG1-F939 (antibody)
heavy: B1 heavy with L237R, S241K, S438V
light: not shown
notes: copies: 2 + 2
In turn, B37 had a Kd of 150 nM.

B38: IgG1-F945 (antibody)
heavy: B1 heavy with T252V, V310P, S438V
light: not shown
notes: EU numbering; copies: 2 + 2
Molecule B38 showed a Kd of 17 nM.

B39: IgG1-F954 (antibody)
heavy: B1 heavy with H437K, S438V
light: not shown
notes: EU numbering; copies: 2 + 2
With B39, binding was put at a Kd of 530 nM.

B40: IgG1-F910 (antibody)
heavy: B1 heavy with N317D, G318Q, S438Y
light: not shown
notes: EU numbering; copies: 2 + 2
Molecule B40 had a Kd of 140 nM.

B41: IgG1-F891 (antibody)
heavy: B1 heavy with S438W
light: not shown
notes: EU numbering; copies: 2 + 2
B41: binding was characterised by a dissociation constant (Kd) of 170 nM.

B42: IgG1-F943 (antibody)
heavy: B1 heavy with L237R, S241K, T309Q, Q313A, S438V
light: not shown
notes: EU numbering; copies: 2 + 2
With B42, binding was put at a Kd of 40 nM.

B43: IgG1-F929 (antibody)
heavy: B1 heavy with S256T, T309Q, Q313A, S438I
light: not shown
notes: EU numbering; copies: 2 + 2
Regarding B43, the Kd was 29 nM.

B44: IgG1-F930 (antibody)
heavy: B1 heavy with P240D, T252V, N288E, S438Y
light: not shown
notes: EU numbering; copies: 2 + 2
B44 returned a Kd of 140 nM.

B45: IgG1-F931 (antibody)
heavy: B1 heavy with P240D, T252V, S438I
light: not shown
notes: EU numbering; copies: 2 + 2
Regarding B45, binding was put at a Kd of 120 nM.

B46: IgG1-F932 (antibody)
heavy: B1 heavy with T252V, S438Y
light: not shown
notes: EU numbering; copies: 2 + 2
Turning to B46, the Kd stood at 320 nM.

B47: IgG1-F947 (antibody)
heavy: B1 heavy with T252V, T309Q, V310P, Q313A, S438V
light: not shown
notes: copies: 2 + 2
Turning to B47, binding was characterised by a dissociation constant (Kd) of 11 nM.

B48: IgG1-F926 (antibody)
heavy: B1 heavy with L237K, S241K, S256T, S438I
light: not shown
notes: EU numbering; copies: 2 + 2
Regarding B48, the Kd amounted to 110 nM.

B49: IgG1-F944 (antibody)
heavy: B1 heavy with T252V, S438V
light: not shown
notes: EU numbering; copies: 2 + 2
Turning to B49, the affinity, expressed as Kd, was 170 nM.

B50: IgG1-F915 (antibody)
heavy: B1 heavy with N317D, G318W, S438Y
light: not shown
notes: EU numbering; copies: 2 + 2
B50: the Kd is 230 nM.

B51: IgG1-F933 (antibody)
heavy: B1 heavy with L236R, P240D, T252V, S438Y
light: not shown
notes: EU numbering; copies: 2 + 2
For B51, the Kd was 300 nM.

B52: IgG1-F909 (antibody)
heavy: B1 heavy with N317D, G318P, S438Y
light: not shown
notes: EU numbering; copies: 2 + 2
For the molecule B52, the affinity, expressed as Kd, was 130 nM.

B53: IgG1-F937 (antibody)
heavy: B1 heavy with P240D, S241K, T252V, S438Y
light: not shown
notes: EU numbering; copies: 2 + 2
In turn, B53 registered a Kd of 310 nM.

B54: IgG1-F896 (antibody)
heavy: B1 heavy with L237R, S241K, N288E, T309Q, Q313A, N317E, S438Y
light: not shown
notes: EU numbering; copies: 2 + 2
Molecule B54 yielded a Kd of 20 nM.

B55: IgG1-F902 (antibody)
heavy: B1 heavy with N317D, G318F, S438Y
light: not shown
notes: EU numbering; copies: 2 + 2
B55 came in with a Kd of 220 nM.
